Measured values as given in the supplement of paper PMC9170038.

Test system: MS2 coat protein
Experiment: apparent KD of MS2 coat protein; designed switch direction (-1 OFF switch, 1 ON switch): -1; higher = weaker reporter binding
Outline: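 Stalled E. coli RNA polymerase transcribed designed RNA switches on Illumina chips, which were then titrated with SNAP-549-labelled MS2 coat protein, doubling from 0.7 or 1.5 nM to 3 µM. Steps lasted from 0.8–1.5 h at the lowest concentration to 10–20 min at the highest. The apparent KD is each design's median over clusters of curve-fitted normalised fluorescence.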

[1] = input ligand: microRNA oligo, concentration not stated
[2] = Eterna round: R95, input ligand: FMN 200 uM
[3] = Eterna round: R95, input ligand: microRNA oligo, concentration not stated
[4] = Eterna round: R95, input ligand: none

Sequence	apparent KD of MS2 coat protein (input ligand: FMN 200 uM) [µM]	apparent KD of MS2 coat protein [1] [µM]	apparent KD of MS2 coat protein (input ligand: none) [µM]	apparent KD of MS2 coat protein [2] [µM]	apparent KD of MS2 coat protein [3] [µM]	apparent KD of MS2 coat protein [4] [µM]
ACAUGAGGAUCACCCAUGUCCGGCUGGUCUGUUCCGGUUGUCGAGGAUAUAGUUCGGUGUUCGCGCUAGAAGGCGGGAGCUGGA [Aenatbe mod 53] (Eterna round: R96, puzzle: Exclusion NG 3)	0.177	0.13	0.157	–	–	–
ACAUGAGGAUCACCCAUGUCCGGUUGGUCUGUUCCGGCUGUCGAGGAUAUAGUCCGGUGUUCGCGCUAGAAGGCGAGGGCUGGA [Aenatbe mod 47] (Eterna round: R96, puzzle: Exclusion NG 3)	1.18	0.227	0.397	–	–	–
ACAUGAGGAUCACCCAUGUCCGGUUGGUUUUCUCCGGCUGUUGAGGAUAUAGUCCGGUAUCCGCGCUAGAAGGUGAGGGUUGGC [Aenatbe mod 12] (Eterna round: R96, puzzle: Exclusion NG 3)	0.212	0.125	0.165	–	–	–
ACAUGAGGAUCACCCAUGUGAAAAGAAUGGCUGACACAGAGAUAGGAUAUAUGUGCAUAUCAAACAUAGAAGGGUCAUGACUGG [Deportation 83 - Jieux - Exclusion NG 3] (Eterna round: R96, puzzle: Exclusion NG 3)	–	0.023	–	–	–	–
ACAUGAGGAUCACCCAUGUGAAACCAAUGGCUGACUUUGAGACAGGAUAUUCGUGCAUAUCAAACGAAGAAGGGUCAUUACUGG [Deportation 95 - Jieux - Exclusion NG 3] (Eterna round: R96, puzzle: Exclusion NG 3)	0.0568	0.0411	0.0468	–	–	–
ACAUGAGGAUCACCCAUGUGGACGUAAUGGCUCAUGUAGAGUGAGGAUAUGUGAGACGAACGAGAACAGAAGGCACAAGACAGG [Deportation 7 - Jieux - Exclusion NG 3] (Eterna round: R96, puzzle: Exclusion NG 3)	0.0263	0.0145	0.0221	–	–	–
ACAUGGGAGCGAGGAUAUAGCCCAUGUGAAGAACUAGAAGGCGCAGACAUGAGGAUCACCCAUGUGUUCAUGAGGAGGUGGACA (Eterna round: R96, puzzle: Exclusion NG 1)	0.0727	0.0424	0.0694	–	–	–
ACAUGUAAUGCAGGAUAUCGGACACAUGAGGAUCACCCAUGUGACCAGAGGAAUUGCUAAGAGUCUGAGAAGGGUAUGUACAUG [Ex NG2 #52] (Eterna round: R96, puzzle: Exclusion NG 2)	0.0232	0.0129	0.019	–	–	–
ACAUGUAAUGCAGGAUAUUUUACACAUGAGGAUCACCCAUGUGACCAGAGGAAUUGCUAUGAGUAAAAGAAGGGUAUGUACAUG [Ex NG2 #57] (Eterna round: R96, puzzle: Exclusion NG 2)	–	0.0539	–	–	–	–
ACAUGUAAUGUAGGAUAUUUUACACAUGAGGAUCACCCAUGUGACCAGAGGCUUUGCUAUGAGUAAAAGAAGGGUAUGUACAUG [Ex NG2 #59] (Eterna round: R96, puzzle: Exclusion NG 2)	–	0.0515	–	–	–	–
ACAUGUAUUGCAGGAUAUGGGACACAUGAGGAUCACCCAUGUGACCACAUGUAAUGCCACGGGUCUCAGAAGGGUAUGUACAUG [Ex NG2 #43] (Eterna round: R96, puzzle: Exclusion NG 2)	0.117	0.0229	0.0266	–	–	–
ACAUGUCAUCUAGGAUAUUGGACACAUGAGGAUCACCCAUGUACCCGGAGGCUUUACUAUGAGUUCGAGAAGGAGAUGUACAUG [Ex NG2 #72] (Eterna round: R96, puzzle: Exclusion NG 2)	0.133	0.0386	0.0579	–	–	–
ACAUGUCAUUGAGGAUAUCGCACACAUGAGGAUCACCCAUGUAAACGGAUGCUCAUUAGUGGGUUCGAGAAGGCGAUGUACAUU [Ex NG2 #99] (Eterna round: R96, puzzle: Exclusion NG 2)	0.0647	0.0729	0.0685	–	–	–
ACAUGUGUUGUAGGAUAUAGGACACAUGAGGAUCACCCAUGUGGUUUCAUGUCUAACCAAGCGUCCUAGAAGGACGGCAACAUG [Ex NG2 #27] (Eterna round: R96, puzzle: Exclusion NG 2)	0.0234	0.0194	0.0194	–	–	–
ACAUGUUAUCCAUGAUAUCACAUGAGGAUCACCCAUGUUAAGGCGAUUUUGAGGUGUAAGCUUUGUGCUCGACUUAU [JR_STOV1_Sub055] (Eterna round: R97, puzzle: Sensor, turn-off variant 1)	0.107	–	0.0788	–	–	–
ACCAGACAUGAGGAUCACCCAUGUCAGGAUAUUAUUCUACCUGAAGUUCGGGAUUGUGUGAGAAGGGACUGGGA [Eternabot (L2) Solution 86] (Eterna round: R97, puzzle: Exclusion 1)	0.0174	–	0.0161	–	–	–
ACCAUGUAAGGAUAUCUCGUACAAAGACGCAACUCGUCCAGAGAGAAGGUACAUGAGGAUCACCCAUGUAGACA [Eternabot (Original) Solution 39] (Eterna round: R97, puzzle: Exclusion 4)	0.152	–	0.0335	–	–	–

Sequence	apparent KD of MS2 coat protein (input ligand: FMN 200 uM) [µM]	apparent KD of MS2 coat protein [1] [µM]	apparent KD of MS2 coat protein (input ligand: none) [µM]	apparent KD of MS2 coat protein [2] [µM]	apparent KD of MS2 coat protein [3] [µM]	apparent KD of MS2 coat protein [4] [µM]
ACCCAACAUGAGGAUCACCCAUGUCAGGAUAUCCAAGCGAAAGCAAAAGCGAAAGCAAGGAGAAGGGACAAUGG [ChP 04-04-2015 #7] (puzzle: Exclusion 1)	–	–	–	0.134	0.161	0.276
ACCCAACAUGAGGAUCACCCAUGUCAGGAUAUCCAUCAAAAGCACGAAAGGCGAGGAUGGAGAAGGGACAGAGG [ChP 04-04-2015 #2] (puzzle: Exclusion 1)	–	–	–	0.335	0.178	0.128
ACCCAACAUGAGGAUCACCCAUGUCAGGAUAUCCAUCUAUACUCGAAAGAGUAUAGAUGGAGAAGGGACAGAGG [ChP 04-04-2015 #4] (puzzle: Exclusion 1)	–	–	–	–	0.104	–
ACCCAGUCAGGAUAUCCGGAGUUCCGCGAUGGCGGACGGUAGGAGAAGGGACAUGAGGAUCACCCAUGUAGAAA [EX4 B.17] (Eterna round: R97, puzzle: Exclusion 4)	0.179	–	0.0347	–	–	–
ACCGAAGCAGGAUAUACAUGAGGAUCACCCAUGUGCUUGCAUGGCGUGGGAAGUCAUAGUAGAAGGGCUACGCC [Onzaza] (Eterna round: R97, puzzle: Exclusion 3)	0.053	–	0.0224	–	–	–
ACCGGUGUUGCGGAUAAGCUUUUCUGCUCGUUUUAUCGCACAUGAGGAUCACCCAUGUCAUCCGUCAGCAUGCAAAC [Usveen] (puzzle: Sensor v3, turn-off variant 2)	–	–	–	0.0226	0.0388	0.0251
ACCUCACAUGAGGAUCACCCAUGUCAGGAUAUCUUUUAUUACAGCAAUCCUGUCGCUGAGAGAAGGGACAUUAA [EX1 #25] (Eterna round: R97, puzzle: Exclusion 1)	0.0338	–	0.0281	–	–	–
ACCUCACAUGAGGAUCACCCAUGUCAGGAUAUCUUUUAUUGCAGCAAUCCUGUCGCUGAGAGAAGGGACAUUAA [EX1 #26] (Eterna round: R97, puzzle: Exclusion 1)	0.0307	–	0.0265	–	–	–
ACCUCACUUGAGGAUCACCCAAGUCAGGAUAUACUCGUUUGCCGCGCGACGCGGCAUUGUAGAAGGGACGGGCU [Orquisates] (Eterna round: R97, puzzle: Exclusion 1)	0.032	–	0.0188	–	–	–
ACCUCUUGAGGAUAUACAUGAGGAUCACCCAUGUUCCUUAAUAAAAUAGUUAUAUCGUGUAGAAGGUGGGAGGC [Eternabot (L2) Solution 42] (Eterna round: R97, puzzle: Exclusion 3)	0.0114	–	0.069	–	–	–
ACGAGGUCAGGAUAUACGGAGAGAGGGAGUUGGUUAGGGUAACAUGAGGAUCACCCAUGUAGAAGGGACUAGGG [JR_Exclu2_Sub080] (puzzle: Exclusion 2)	–	–	–	–	0.0399	–
ACGAUGACAGAAAGAAGUCAAAAGACAUGAGGAUCACCCAUGUAGGAUAUGGCUACGAAAAGUAGUCAGAAGGACAUGUCAUCA [Omei Exc(NG) 3 Av3] (Eterna round: R96, puzzle: Exclusion NG 3)	0.0135	0.00879	0.0168	–	–	–
ACGCAUUGCCUUUGGUAGUGCGUAACAUGAGGAUCACCCAUGUAGGAUAUGGUAGGCUUUGCUUACCAGAAGGACAUUAUAAAG [Mat - Exclusion NG 3 - Mod of JL - D10] (Eterna round: R96, puzzle: Exclusion NG 3)	0.0516	0.0284	0.0341	–	–	–
ACGCGAGUAGGAGGAUAUUCUGAGCGCGGGCCAGAAGAAGGCCUAGAUCGUGAACAUGAGGAUCACCCAUGUGGGAUGAUCUAA [Vevexeaus] (Eterna round: R96, puzzle: Exclusion NG 1)	0.18	0.224	0.307	–	–	–
ACGGGUAAGUAAGGAUAUCCAACAGGCUGAAUUCAACCUGAACAUGAGGAUCACCCAUGUGGGUGGGAGAAGGUACUCUCCCGC [Diladiaen] (Eterna round: R96, puzzle: Exclusion NG 2)	0.0865	0.0655	0.0937	–	–	–
ACGUAACGAGCUUGAUCCAACAUGAGGAUCACCCAUGUGCUCGUCUUAUAACGUACUGUCACGUUAGUGAUAGUGCG [Sensor v3, turn-off variant 1 (MOD of Eli's v1-13 v.5)] (puzzle: Sensor v3, turn-off variant 1)	–	–	–	0.971	0.369	1.19
